Experimental findings from patent publication US20200181259A1 are described below.

Experiment [1] addresses human CD47 overexpressed on CHO cells (human) (UniProt Q08722). The experiment can be described thus: flow cytometry competition on CHO-hCD47 cells against 200 nM mouse Fc-labelled SIRPα.
The target is the same in experiment [2]. The description is as above. The source holds these as a separate data set.

Read-outs that look alike come from different tables or passages of the source.

B1: AB6.12, control humanized anti-CD47 antibody transiently expressed in 293 HEK cells (antibody, from another filing, V domains shown)
VH: QMQLVQSGAEVKKTGSSVKVSCKASGFNIKDYYLHWVRQAPGQALEWMGWIDPDQGDTEYAQKFQDRVTITRDRSMSTAYMELSSLRSEDTAMYYCNAAYGSSSYPMDYWGQGTTVTV
VL: NIQMTQSPSAMSASVGDRVTITCKASQDIHRYLSWFQQKPGKVPKHLIYRANRLVSGVPSRFSGSGSGTEFTLTISSLQPEDFATYYCLQYDEFPYTFGGGTKVEIK
Regarding B1, the IC50 stood at 3.38 nM in experiment [1] and 1.77 nM in experiment [2].
